Data reported in patent publication US20170313754A1 (PROTAGONIST THERAPEUTICS, published 2017).
Read-outs that look alike come from different tables or passages of the source. Numbered stars: 1 amine (or outer) side, 2 acyl side, 3 side chain; on linkers, the order of the positions; unused ones are H or OH. Square brackets hold non-standard residues; d marks the D form. Primed or numbered codes have the meaning given here. Ends that are not written are not given here. * marks the point of attachment. Ida = iminodiacetic acid, O=C(CN(CC(=O)[*:3])[*:1])[*:2]; PEG3′ = NH2CH2CH2(OCH2CH2)3CH2CH2CO2H (PEG3 linker); Dip = N[C@H](C(=O)O)C(c1ccccc1)c1ccccc1; Palmitoyl = CCCCCCCCCCCCCCCC(=O)*; β3hF = N[C@H](CC(=O)O)Cc1ccccc1; pGlu = O=C1CC[C@@H](C(=O)O)N1; β3hP = O=C(O)C[C@@H]1CCCN1; Isovaleryl = CC(C)CC(=O)*; Palm = palmitoyl

What was measured:
Assay in all cases: cell-based or functional assay
[1] = target: T1, human ferroportin (SLC40A1) fused in frame with GFP, stably expressed on HEK293 cells (human, UniProt Q9NP59 1-571)
T1 sequence (looked up): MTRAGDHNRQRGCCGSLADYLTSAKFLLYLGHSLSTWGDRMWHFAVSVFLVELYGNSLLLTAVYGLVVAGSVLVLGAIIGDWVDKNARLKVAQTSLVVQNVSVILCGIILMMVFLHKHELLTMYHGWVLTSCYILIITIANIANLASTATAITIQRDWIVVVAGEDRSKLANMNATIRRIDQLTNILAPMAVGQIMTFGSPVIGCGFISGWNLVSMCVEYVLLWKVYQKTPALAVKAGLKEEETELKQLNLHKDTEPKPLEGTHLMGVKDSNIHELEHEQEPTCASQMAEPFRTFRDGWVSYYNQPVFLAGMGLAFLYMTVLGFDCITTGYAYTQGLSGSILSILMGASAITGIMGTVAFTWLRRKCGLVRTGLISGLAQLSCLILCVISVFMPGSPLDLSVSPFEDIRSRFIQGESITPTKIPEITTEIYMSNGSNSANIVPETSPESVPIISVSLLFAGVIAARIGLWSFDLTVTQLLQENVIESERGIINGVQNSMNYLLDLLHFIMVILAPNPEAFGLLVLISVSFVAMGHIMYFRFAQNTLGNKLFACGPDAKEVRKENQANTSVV

[2] = target: T1, human ferroportin (SLC40A1) fused in …; remark: listed apart in the source
[3] = target: T2, human ferroportin (SLC40A1) fused in frame with GFP, stably expressed on HEK293 cells (human, UniProt Q9NP59 1-571); remark: listed apart in the source
T2 sequence (looked up): T1 sequence (looked up)

[4] = target: T1, human ferroportin (SLC40A1) fused in …; remark: listed apart in the source
[5] = target: T1, human ferroportin (SLC40A1) fused in …; remark: listed apart in the source
[6] = target: T1, human ferroportin (SLC40A1) fused in …; remark: listed apart in the source
[7] = target: T1, human ferroportin (SLC40A1) fused in …; remark: listed apart in the source
[8] = target: T1, human ferroportin (SLC40A1) fused in …; remark: listed apart in the source

B1: (Isovaleric acid-DTHFPCIKF)2[Lys]-Lys(Palm)-NH2 (peptide)
peptide: DTHFPCIKF
modifications: N-terminal isovaleric acid on each subunit; the two subunits are joined at their C-termini through a [Lys] linker, which is followed by Lys(Palm)-NH2
EC50 (nM) (n > 3), ferroportin internalization/degradation assay [1]: 16 nM

[Ida]TH[Dip][β3hP]RCR[β3hF]-{PEG3′-Palm} (also: homodimer, linkage not given here) [(Ida-TH-Dpa-bhPro-RCR-bhPhe-PEG3-Palm)2]
Potency EC50 (nM), ferroportin internalization/degradation assay [2]: 31 nM

B2: Cmpd6: Isovaleric acid-DTHFPCIIF-[Sarc]-PHSKG-[N-MeTrp]-VC-NH2 (peptide)
peptide: DTHFPCIIFXPHSKGWVC
modifications: N-terminal isovaleric acid; sarcosine [Sarc] at position 10; N-methyl-tryptophan [N-MeTrp] at position 16; C-terminal amide (-NH2)
Potency EC50 (nM), ferroportin internalization/degradation assay (loss of GFP fluorescence) [3]: 9 nM

H-DTHFPCLIF-NH2 [Hy-DTHFPCLIF-NH2]
EC50 (nM), ferroportin internalization/degradation assay [4]: > 10000 nM

B3: Hy-[pGlu]-THFPCRKF-NH2 (peptide)
peptide: [pGlu]THFPCRKF-NH2
SMILES: C[C@@H](O)[C@H](NC(=O)[C@@H]1CCC(=O)N1)C(=O)N[C@@H](Cc1c[nH]cn1)C(=O)N[C@@H](Cc1ccccc1)C(=O)N1CCC[C@H]1C(=O)N[C@@H](CS)C(=O)N[C@@H](CCCNC(=N)N)C(=O)N[C@@H](CCCCN)C(=O)N[C@@H](Cc1ccccc1)C(N)=O
EC50 (nM), ferroportin internalization/degradation assay [4]: > 1000 nM

H-DTHFPCQIF-NH2 [Hy-DTHFPCQIF-NH2]
EC50 (nM), ferroportin internalization/degradation assay [4]: > 1000 nM

B4: (isobutyric acid-DTHFPCIKF)2[Lys]K(iso-Glu-Palm)-NH2 (peptide)
peptide: DTHFPCIKF
modifications: N-terminal isobutyric acid on each subunit; the two subunits are joined at their C-termini through a [Lys] linker, which is followed by K(iso-Glu-Palm)-NH2
EC50 (nM) (n > 3), ferroportin internalization/degradation assay [1]: 24 nM
EC50 (nM) (n > 3), ferroportin internalization/degradation assay [5]: 24 nM

DTHFPICIFK (N-terminal isovaleric acid; Palm on the side chain of Lys 10; C-terminal amide) [(isovaleric acid-DTHFPICIFK(Palm)-NH2)2]
Potency EC50 (nM), ferroportin internalization/degradation assay [6]: 580 nM

B5: (Isovaleric acid-DTHFPCIKF)2[Lys]-NH2 (peptide)
peptide: DTHFPCIKF
modifications: N-terminal isovaleric acid on each subunit; the two subunits are joined at their C-termini through a [Lys]-NH2 linker
EC50 (nM) (n > 3), ferroportin internalization/degradation assay [1]: 30 nM
EC50 (nM) (n > 3), ferroportin internalization/degradation assay [5]: 30 nM

Isovaleryl-DTHFPCIRFK-{K(γGlu-Palm)-NH2} (also: dimer: two subunits joined at C-termini through a Lys linker) [(Isovaleric acid-DTHFPCIRF)2[Lys]-K(iso-Glu-Palm)-NH2]
EC50 (nM) (n > 3), ferroportin internalization/degradation assay [1]: 4 nM
EC50 (nM) (n > 3), ferroportin internalization/degradation assay [5]: 4 nM

B6: (isovaleric acid-DTHFPCIKF)2[Lys]K(iso-Glu-Palm)-NH2 (peptide)
peptide: DTHFPCIKF
modifications: N-terminal isovaleric acid on each subunit; the two subunits are joined at their C-termini through a [Lys] linker, which is followed by K(iso-Glu-Palm)-NH2
EC50 (nM) (n > 3), ferroportin internalization/degradation assay [1]: 14 nM
EC50 (nM) (n > 3), ferroportin internalization/degradation assay [5]: 14 nM

[pGlu]THFPCRKF-NH2 (also: homodimer, linkage of subunits not given here) [([pGlu]-THFPCRKF-NH2)2]
percent at the stated concentration (printed in the Potency EC50 column), ferroportin internalization/degradation assay [7]: 31 % at 10 uM

H-DTHFPICIF-NH2 (also: homodimer, link between subunits not given here) [(Hy-DTHFPICIF-NH2)2]
Potency EC50 (nM), ferroportin internalization/degradation assay [2]: 146 nM

H-DTHFPCLF-NH2 (also: homodimer, link between subunits not given here) [(Hy-DTHFPCLF-NH2)2]
Potency EC50 (nM), ferroportin internalization/degradation assay [7]: 297 nM

H-DTHFPICIF-NH2 [Mini-Hepcidin 1-9, Hy-DTHFPICIF-NH2]
Potency EC50 (nM), ferroportin degradation [8]: 712 nM

Isovaleryl-DTHFPCIKFAA-NH2 (also: homodimer, linkage of subunits not given here) [(isovaleric acid-DTHFPCIKFAA-NH2)2]
Potency EC50 (nM), ferroportin internalization/degradation assay [6]: 47 nM

Isovaleryl-DTHFPCIK(Palmitoyl)F-NH2 (also: homodimer, linkage of subunits not given here) [(isovaleric acid-DTHFPCIK(Palm)-F-NH2)2]
Potency EC50 (nM), ferroportin internalization/degradation assay [6]: 294 nM

FICIPFHTD (all nine residues are D-amino acids (retro inverse); C-terminal amide) [RI-Mini Hepcidin, Hy-DPhe-DIle-DCys-DIle-DPro-DPhe-DHis-DThr-DAsp-NH2]
Potency EC50 (nM), ferroportin degradation [8]: > 10000 nM

H-DTHFPCRIF-NH2 [Hy-DTHFPCRIF-NH2]
EC50 (nM), ferroportin internalization/degradation assay [4]: > 1000 nM
